Test results as given in publication PMC7261172, “Peptides containing the PCNA interacting motif APIM bind to the β-clamp and inhibit bacterial growth and mutagenesis” (Nucleic Acids Research, 2020).

Experiments:
[1] = target: E. coli β-clamp, wild type, His-tagged (UniProt P0A988); assay: SPR; conditions: peak response at the end of the last (highest) peptide injection, about 1130 s; concentrations not given; parent: est. 140; read off a plot
[2] = target: β-clamp (Escherichia coli) (UniProt P0A988); conditions: cited from earlier work

| Substance | response [1] | Kd [2] |
| --- | --- | --- |
| Octamer APIM peptide RWLVK (Ac-MDRWLVKW) MDRALVKW (mutated APIM; W to A at peptide position 4 of MDRWLVKW) | 8 RU | – |
| Pol III alpha C-terminal peptide | – | 2000 nM |
